These are literature values, as cited in paper PMC10558290.

What is called Kd is the free concentration of one partner at which half of the binding sites on the other are occupied at equilibrium, for simple one-to-one binding.

Read-outs that look alike come from different tables or passages of the source.

Data set [1] addresses G-actin (Saccharomyces cerevisiae) (UniProt P60010).
The target is the same in data set [2]. The source holds these as a separate data set.

Chain of Srv2 (P17555 whole entry): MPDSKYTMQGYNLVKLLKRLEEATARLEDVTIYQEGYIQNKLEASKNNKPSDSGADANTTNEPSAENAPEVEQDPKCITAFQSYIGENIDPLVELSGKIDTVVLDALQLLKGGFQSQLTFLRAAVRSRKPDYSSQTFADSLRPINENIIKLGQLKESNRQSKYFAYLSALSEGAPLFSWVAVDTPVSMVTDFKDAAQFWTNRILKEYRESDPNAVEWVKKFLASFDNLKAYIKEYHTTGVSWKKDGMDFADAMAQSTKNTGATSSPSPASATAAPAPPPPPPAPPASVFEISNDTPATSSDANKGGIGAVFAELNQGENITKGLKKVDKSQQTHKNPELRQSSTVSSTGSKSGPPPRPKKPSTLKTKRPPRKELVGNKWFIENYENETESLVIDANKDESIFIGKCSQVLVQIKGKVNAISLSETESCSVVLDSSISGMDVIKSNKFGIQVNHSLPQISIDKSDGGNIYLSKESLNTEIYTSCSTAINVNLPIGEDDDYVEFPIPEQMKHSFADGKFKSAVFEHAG
Chain of Profilin Pfy1 (P07274 whole entry): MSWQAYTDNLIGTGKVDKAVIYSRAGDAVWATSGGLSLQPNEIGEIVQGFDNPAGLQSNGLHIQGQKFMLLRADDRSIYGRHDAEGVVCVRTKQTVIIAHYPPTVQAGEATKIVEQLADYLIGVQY

Turning to Profilin Pfy1 (from UniProt P07274), the Kd in data set [1] was 100 nM. Regarding Srv2 (from UniProt P17555), in data set [2], the Kd is 18 nM.
